# Paper doi:10.1101/2021.05.28.446204
# pKd: −log10 of the molar value.
# Assays:
# Experiment in all cases: fluorescence polarisation
# [1] = molecular target: TAMRA-labeled CoV-2 nsp1 C-K R99A (SARS-CoV-2) (UniProt P0DTD1)
# [2] = molecular target: TAMRA-labeled CoV-2 nsp1 C-K, wild type (SARS-CoV-2) (UniProt P0DTD1)
# [3] = molecular target: TAMRA-labeled CoV-2 nsp1 C-K R124A/K125A (SARS-CoV-2) (UniProt P0DTD1)
substance,measurement,setting,value
purified ribosomes (crude 80S from HeLa cell lysate) (from UniProt P15880;P23396;P62847;P63244) (complex),fold increase in Kd against WT nsp1,[1],1.6 fold
same,pKd,[2],6.27
same,fold increase in Kd against WT nsp1,[3],2 fold
